{"source": "paper PMC7749166", "about": "(Communications Biology, 2020)", "key": {"C5aR^D282A": {"biological_target": "T1, C5aR^D282A (Homo sapiens, UniProt P21730, D282A)", "T1 construct": "Flag (N); His8 (C); made in house; host or cells: HEK-293S cells (BacMam baculovirus)", "T1 sequence (P21730 1-350 D282A)": "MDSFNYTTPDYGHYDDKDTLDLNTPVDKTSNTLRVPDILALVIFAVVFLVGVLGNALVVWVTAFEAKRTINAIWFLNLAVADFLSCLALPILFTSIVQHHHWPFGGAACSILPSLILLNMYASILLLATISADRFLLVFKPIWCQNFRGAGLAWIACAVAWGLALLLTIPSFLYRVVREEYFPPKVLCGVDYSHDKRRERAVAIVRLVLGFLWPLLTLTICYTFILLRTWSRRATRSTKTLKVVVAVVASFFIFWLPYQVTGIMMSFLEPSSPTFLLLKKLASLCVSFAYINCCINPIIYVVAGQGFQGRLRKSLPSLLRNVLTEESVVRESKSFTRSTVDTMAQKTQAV", "test": "35S-GTPγS binding assay, D282A mutant", "type": "biochemical", "conditions": "increased concentration of C5a, Fig. S7", "experimental": "(§1) Mutant variants (D282A, D282N, and R175V/Y258V) were generated based on the wtC5aR construct and fully sequenced. Mutant variants were expressed following the same method as for wtC5aR except for some modifications. HEK-293S cells expressing each mutant were pelleted by centrifugation and resuspended in 20 ml buffer containing 20 mM HEPES pH 7.5, 100 mM NaCl, 0.2 μg ml^−1 leupeptin, and 150 μg ml^−1 benzamidine. After 20 min incubation at 25 °C, 20 ml 2X solubilization buffer containing 20 mM HEPES pH 7.5, 100 mM NaCl, 1% dodecyl-maltoside (DDM), 0.2% cholesterol hemisuccinate (CHS), 20% glycerol, 0.2 μg ml^−1 leupeptin, 150 μg ml^−1 benzamidine, and 5 U Salt Active Nuclease (Sigma) was added. Cell membranes were solubilized for 1.5 h at 4 °C. […]\n(§2) For the ^35S-GTPγS binding assays, the membrane of HEK293S GnTI^− cells expressing wtC5aR (~200 µg ml^−1) or mutant variants was incubated with 200 nM purified Gi protein for 30 min on ice in buffer containing 20 mM HEPES pH 7.5, 100 mM NaCl, 5 mM MgCl2, 3 μg ml^−1 BSA, 0.1 μM TCEP, and 5 μM GDP to get the receptor and Gi complex. […] The radiation of bound ^35S-GTPγS was measured on a Beckman LS6500 scintillation counter to determine the binding of ^35S-GTPγS to Gi induced by C5aR activation. […]"}, "C5aR^R175V/Y258V": {"biological_target": "T2, C5aR^R175V/Y258V (Homo sapiens, UniProt P21730, R175V/Y258V)", "T2 construct": "Flag (N); His8 (C); made in house; host or cells: HEK-293S cells (BacMam baculovirus)", "T2 sequence (P21730 1-350 R175V/Y258V)": "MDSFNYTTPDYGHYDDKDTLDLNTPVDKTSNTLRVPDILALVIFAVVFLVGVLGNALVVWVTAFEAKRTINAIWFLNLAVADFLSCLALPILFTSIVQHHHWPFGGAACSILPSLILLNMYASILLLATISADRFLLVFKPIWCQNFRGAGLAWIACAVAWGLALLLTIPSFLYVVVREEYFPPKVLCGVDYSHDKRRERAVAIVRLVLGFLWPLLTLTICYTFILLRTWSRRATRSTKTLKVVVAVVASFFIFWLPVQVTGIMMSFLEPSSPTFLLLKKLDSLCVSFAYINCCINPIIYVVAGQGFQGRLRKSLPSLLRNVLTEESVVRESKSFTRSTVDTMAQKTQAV", "test": "35S-GTPγS binding assay, R175V/Y258V mutant", "type": "biochemical", "conditions": "increased concentration of C5a, Fig. S7", "experimental": "as §1, §2"}}, "data": [{"molecule": "C5a: C5a, a large 74-amino acid glycoprotein; endogenous ligand of C5aR (His6-tag at N-terminal end for AFM tips) (protein, left off: His6, N-terminal, kept) TLQKKIEEIAAKYKHSVVKKCCYDGACVNNDETCEQRAARISLGPRCIKAFTECCVVASQLRANISHKDMQLGR", "values": [{"measurement": "Gi-protein activation vs C5aR^WT", "setting": "C5aR^D282A", "result": "strong reduction in the Gi-protein activation"}, {"measurement": "Gi-protein activation vs C5aR^WT", "setting": "C5aR^R175V/Y258V", "result": "strong reduction in the Gi-protein activation"}]}]}
